# Where two headings read alike, the source gives them in different places.
# T1: Recombinant human OX40 (human, UniProt P43489 29-216, limits assumed)
# T1 construct: also called CD134
# T1 sequence (looked up): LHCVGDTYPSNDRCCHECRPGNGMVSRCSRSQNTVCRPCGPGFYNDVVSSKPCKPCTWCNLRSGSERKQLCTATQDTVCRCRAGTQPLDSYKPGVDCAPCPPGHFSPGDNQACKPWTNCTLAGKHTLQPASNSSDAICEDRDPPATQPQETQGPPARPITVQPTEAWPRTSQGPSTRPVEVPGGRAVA
# T2: TIGIT on activated CD8 T-cells (human, UniProt Q495A1)
# T2 sequence (receptor chain, looked up): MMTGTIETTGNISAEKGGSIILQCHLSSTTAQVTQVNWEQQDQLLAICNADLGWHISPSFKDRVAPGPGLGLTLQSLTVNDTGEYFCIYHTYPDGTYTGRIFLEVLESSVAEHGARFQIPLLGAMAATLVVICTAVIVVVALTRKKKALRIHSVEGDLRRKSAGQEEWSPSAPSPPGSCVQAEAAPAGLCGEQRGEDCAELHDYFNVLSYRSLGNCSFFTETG
# What was measured:
# [1] = molecular target: T3, FAPα on FAPα+ fibroblasts (human, UniProt Q12884 1-760); assay: flow cytometry on BJ fibroblasts, anti-human Fc secondary antibody, % IgG bound cells
# T3 construct: whole, on cells; also called FAPα+ target cells (BJ fibroblasts, human dermal fibroblasts)
# Method: After washing, cells were incubated for a further 15 minutes with anti-human Fc secondary antibodies before washing and fixing. The amount of antibody bound to each cell type was determined by flow cytometry.
# [2] = molecular target: T4, L1 (DV1-GV4), soluble human Vδ1/Vγ4 γδ TCR heterodimer in leucine zipper format (human); assay: SPR (Reichert 4SPR), antibody on Protein A chip, antigen flown over
# T4 construct: Biotinylated in the DELFIA ranking; also called Antigen L1 (TRDV1/TRGV4); human DV1-GV4; not shown: gamma chain: Vγ4 (TRGV4) domain on a TCR constant region, leucine zipper, histidine tag
# [3] = molecular target: T5, Vδ1 chain of the γδ TCR on human Vδ1 γδ T cells (human); assay: flow cytometry on Vδ1 γδ T-cells, anti-human IgG secondary antibody, % IgG bound cells
# T5 construct: whole, on cells; also called cell surface Vδ1 TCR; Vδ1-positive γδ T cells
# Method: After washing, cells were incubated for a further 15 minutes with anti-human IgG secondary antibodies before washing and fixing. The amount of antibody bound to each cell type was determined by flow cytometry.
# [4] = molecular target: T6, 4-1BB on activated CD8 T-cells (human, UniProt Q07011); assay: flow cytometry on anti-CD3/anti-CD28-activated CD8 T-cells, anti-human IgG secondary antibody, % cells bound IgG
# T6 construct: also called 4-1BB+ CD8 T-cells
# [5] = molecular target: T4, L1 (DV1-GV4), soluble human Vδ1/Vγ4 γδ …; assay: SPR (Reichert 4SPR), antibody on Protein A chip, antigen flown over; remark: listed apart in the source
# Method: (§1) Recombinant human Vδ1 heterodimer or human MSLN was flown over the cell at a top concentration of 100 nM with the following parameters: 180 s association, 480 s dissociation, flowrate 25 μL/min, running buffer PBS+0.05% Tween 20. All experiments were performed at room temperature.
# Recombinant human FAPα = Recombinant human FAPα (human, UniProt Q12884 26-760); assay: SPR, Reichert 4SPR; antibody captured on Protein A chip, human FAPα flown over
# Method: Recombinant human Vδ1 heterodimer or human FAPα was flown over the cell at a concentration of 100 nM with the following parameters: 180 s association, 480 s dissociation, flowrate 25 μL/min, running buffer PBS+0.05% Tween 20. All experiments were performed at room temperature.
# Recombinant human MSLN = molecular target: T7, Recombinant human MSLN (human, UniProt Q13421 296-580, limits assumed); assay: SPR, Reichert 4SPR; antibody captured on Protein A chip, human MSLN flown over
# T7 construct: also called mesothelin
# Method: as §1
# [6] = molecular target: T8, Her2 on Her2+ breast cancer cells (SK-BR-3, BT-474) (human, UniProt P04626 23-1255); assay: flow cytometry on SK-BR-3 cells, anti-human IgG secondary antibody
# T8 construct: whole, on cells; also called ErbB-2; CD340
# [7] = molecular target: T4, L1 (DV1-GV4), soluble human Vδ1/Vγ4 γδ …; assay: SPR (Reichert 4SPR), antibody on Protein A chip, antigen flown over; remark: listed apart in the source
# Method: Recombinant human Vδ1 heterodimer or human 4-1BB was flown over the cell at a top concentration of 100 nM.
# [8] = molecular target: T5, Vδ1 chain of the γδ TCR on human Vδ1 γδ …; assay: flow cytometry, anti-human IgG secondary antibody, Vδ1 γδ T-cells
# Method: (§2) Initially CD4 and CD8 T-cells were negatively selected by magnetic sorting from PBMC buffy coats extracted from whole blood. […] After washing, cells were incubated for a further 15 minutes with anti-human IgG secondary antibodies before washing and fixing. The amount of antibody bound to each cell type was determined by flow cytometry.
# [9] = molecular target: T5, Vδ1 chain of the γδ TCR on human Vδ1 γδ …; assay: cell-based or functional assay
# Recombinant human OX40 = molecular target: T1, Recombinant human OX40; assay: SPR, Reichert 4SPR; antibody captured on Protein A chip, human OX40 flown over
# Method: Recombinant human Vδ1 heterodimer or human OX40 was flown over the cell at a top concentration of 100 nM.
# [10] = molecular target: T2, TIGIT on activated CD8 T-cells; assay: flow cytometry, anti-human IgG secondary antibody, activated CD8 T-cells
# Method: as §2
# T4 sequence (main, as listed by the source): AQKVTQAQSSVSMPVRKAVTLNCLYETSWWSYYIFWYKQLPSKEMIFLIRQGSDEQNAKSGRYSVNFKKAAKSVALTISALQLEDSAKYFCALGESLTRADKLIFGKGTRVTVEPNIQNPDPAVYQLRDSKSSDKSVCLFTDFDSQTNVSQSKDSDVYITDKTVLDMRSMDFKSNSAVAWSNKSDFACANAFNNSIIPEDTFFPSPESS
# T5 sequence (A0A1B0GX56 22-115, stated change not applied): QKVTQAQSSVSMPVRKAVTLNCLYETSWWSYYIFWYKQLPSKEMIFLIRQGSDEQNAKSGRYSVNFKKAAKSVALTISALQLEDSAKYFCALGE
# T6 sequence (Q07011 24-255 limits assumed): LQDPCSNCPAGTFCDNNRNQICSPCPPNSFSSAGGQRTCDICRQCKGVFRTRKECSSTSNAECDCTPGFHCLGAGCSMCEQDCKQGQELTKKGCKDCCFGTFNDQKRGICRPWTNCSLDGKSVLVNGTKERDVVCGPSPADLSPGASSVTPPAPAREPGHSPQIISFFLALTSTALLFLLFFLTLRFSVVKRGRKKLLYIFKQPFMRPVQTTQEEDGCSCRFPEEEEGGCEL
# T7 sequence (Q13421 other isoform, or with tags, fused parts or gaps limits assumed): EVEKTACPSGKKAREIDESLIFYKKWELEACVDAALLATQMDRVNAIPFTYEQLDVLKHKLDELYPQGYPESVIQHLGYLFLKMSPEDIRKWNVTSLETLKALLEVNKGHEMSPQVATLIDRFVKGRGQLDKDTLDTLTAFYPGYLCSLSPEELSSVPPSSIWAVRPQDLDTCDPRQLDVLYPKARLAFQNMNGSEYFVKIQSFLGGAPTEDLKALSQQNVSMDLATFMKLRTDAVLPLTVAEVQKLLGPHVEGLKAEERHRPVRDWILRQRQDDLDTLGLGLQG
binder,measurement,setting,value
"ADT1-4-2 (antibody, IgG1, V domains shown, IgG1) VH: EVQLQQSGPGLVKPSQTLSLTCAISGDSVSSKSAAWNWIRQSPSRGLEWLGRTYYRSKWSTDYAASVKSRITINPDTSKNQLSLQLNSVTPEDTAVYYCARTWVGYVDRWGQGTLVTVSS VL: DIQMTQSPPALSASVGDRVTITCRASQDINDWLAWYQHKPGKAPKLLIYDASSLESGVPLRFSGSGSGTEFTLTISSLQPDDFATYYCQQKYSAPQVTFGQGTRLEIK",binding result,[1],no binding (tested: about 70 nM)
same,Kd,[2],1.25 nM
same,EC50 (read off the curve),[3],~0.3 nM
same,binding result,[4],no binding (tested: 200 nM)
same,Kd,[5],0.01 nM
same,binding result,Recombinant human FAPα,no binding
same,binding result,Recombinant human MSLN,no binding
same,binding result,[6],no binding (tested: about 300 nM)
same,Kd,[7],1.25 nM
same,EC50 (read off the curve),[8],~0.2 nM
same,"IC50 (read off the curve), Vδ1 TCR downregulation, γδ T-cells alone",[9],~0.1 nM
same,binding result,Recombinant human OX40,no binding
same,binding result,[10],no binding (tested: 200 nM)
